According to article PMC4520616, “Biochemical Characterization of the Split Class II Ribonucleotide Reductase from Pseudomonas aeruginosa” (PLoS ONE, 2015):

B2: NrdJa subunit of the split class II ribonucleotide reductase from Pseudomonas aeruginosa (enzyme, UniProt Q9HT76 1-734, looked up)
chain: MLRTVAGFGRPNNHREVNQRMAKTDARSPRTERGTIALQDASQDIWDKKYRLKSKDGTPVDASVDGTWQRVARALADVEDKASREHWYGRFLWALRNGAIPAGRIISNAGALGHKPATSTINCTVSGTIQDSMDNILEKVHEAGLTLKAGCGIGYEFSTLRPRGAYVSGAGAYTSGPLSFMDIYDKMCFTVSSAGGRRGAQMGTFDVSHPDVREFIRAKREDGRLRQFNLSLLITDQFMQAVEQDADWPLVFPVHVKERDEIDLDDPNAVVWREWPIQDDYVQRADGLVACKVYGQVRARHLWDMIMVSTYDYAEPGFILIDRVNELNNNWWCEAIRATNPCGEQPLPPYGSCLLGSVNLTCFVEQPFGDEARFDWDRFREVVRVFTRMLDNVVEINGLPLEQQRQEILGKRRHGMGFLGLGSTLTLLKLRYGSPEACVFTEEVAREMALVGWEVALELAREKGPAPILAQDYEVTAEMLRKRPEMAADGYKAGDRIRGSVLHAKYSRYMQRVAEHAPELIEALAETGARFTHHSSIAPTGTISLSLANNASNGIEPSFAHHYSRNLIREGRKTKEKVEVYSYELLAYRTLVNAQALPDSDDPARRLPDYFITADSVTPAQHMDIQAAAQKWVDSSISKTANVPTDYPFEDFKDIYRYAWHQGLKGCTTFRFNPEAFQGVLVKESDLEKTRYRFELEDGSVVEFKGNEQVEYDGEIHTAANLFDALKEGYYGKY
modifications: biotin linker (0.15 biotin linker/NrdJa monomer) only where NrdJa was immobilised on the streptavidin chip for SPR
notes: NrdJa, large subunit of the split class II ribonucleotide reductase (NrdJ) of Pseudomonas aeruginosa; 734 residues in PA; the nrdJa open reading frame was cloned into pET22; Monomer or dimer according to the allosteric effector (GEMMA); also called PA NrdJa

Tests used:
[1] = substrate: Nc1ccn([C@@H]2O[C@H](COP(=O)(O)OP(=O)(O)OP(=O)(O)O)[C@@H](O)[C@H]2O)c(=O)n1; experiment: 3H-CTP reduction assay, Michaelis-Menten fit; type: biochemical, Pseudomonas aeruginosa; settings: 1 mM ATP, 100 μM AdoCbl, 30 mM DTT, 10 mM MgCl2, pH 7.5, labelled compound
[2] = biological target: the molecule itself; experiment: gas phase electrophoretic macromolecule analysis (GEMMA); 0.02 mg/ml NrdJa in 40 mM ammonium acetate pH 7.8, 0.005% Tween-20, 2 mM DTT; with 50 uM dTTP and 1:1 Mg2+
[3] = biological target: B2; experiment: cell-based or functional assay
[4] = biological target: B2; experiment: SPR; biotinylated NrdJb immobilised on streptavidin chip, 0-2 uM NrdJa injected; 30 mM Tris-HCl pH 7.0, 10 mM MgCl2, 0.025% P20, 2 mM DTT; with 0.5 mM CTP; steady state fit; apparent Kd; settings: both partners purified
[5] = biological target: B2; experiment: SPR; biotinylated NrdJb immobilised on streptavidin chip, 0-2 uM NrdJa injected; 30 mM Tris-HCl pH 7.0, 10 mM MgCl2, 0.025% P20, 2 mM DTT; with 0.5 mM dATP; steady state fit; apparent Kd; settings: both partners purified
[6] = biological target: B2; experiment: SPR; biotinylated NrdJb immobilised on streptavidin chip, 0-2 uM NrdJa injected; 30 mM Tris-HCl pH 7.0, 10 mM MgCl2, 0.025% P20, 2 mM DTT; with 40 uM AdoCbl; steady state fit; apparent Kd; settings: both partners purified
[7] = biological target: B2; experiment: SPR; biotinylated NrdJb immobilised on streptavidin chip, 0-2 uM NrdJa injected at 30 ul/min; 30 mM Tris-HCl pH 7.0, 10 mM MgCl2, 0.025% P20, 2 mM DTT; no additive; steady state fit; apparent Kd; settings: both partners purified
[8] = biological target: B2; experiment: SPR; biotinylated NrdJb immobilised on streptavidin chip, 0-2 uM NrdJa injected; 30 mM Tris-HCl pH 7.0, 10 mM MgCl2, 0.025% P20, 2 mM DTT; with 0.5 mM CTP + 40 uM AdoCbl; steady state fit; apparent Kd; settings: both partners purified
[9] = biological target: B2; experiment: SPR; biotinylated NrdJb immobilised on streptavidin chip, 0-2 uM NrdJa injected; 30 mM Tris-HCl pH 7.0, 10 mM MgCl2, 0.025% P20, 2 mM DTT; with 0.5 mM dATP + 0.5 mM CTP + 40 uM AdoCbl; steady state fit; apparent Kd; settings: both partners purified

B1: NrdJa-NrdJb (split class II ribonucleotide reductase, PA NrdJ) (Pseudomonas aeruginosa PAO1) (protein)
chain: MLRTVAGFGRPNNHREVNQRMAKTDARSPRTERGTIALQDASQDIWDKKYRLKSKDGTPVDASVDGTWQRVARALADVEDKASREHWYGRFLWALRNGAIPAGRIISNAGALGHKPATSTINCTVSGTIQDSMDNILEKVHEAGLTLKAGCGIGYEFSTLRPRGAYVSGAGAYTSGPLSFMDIYDKMCFTVSSAGGRRGAQMGTFDVSHPDVREFIRAKREDGRLRQFNLSLLITDQFMQAVEQDADWPLVFPVHVKERDEIDLDDPNAVVWREWPIQDDYVQRADGLVACKVYGQVRARHLWDMIMVSTYDYAEPGFILIDRVNELNNNWWCEAIRATNPCGEQPLPPYGSCLLGSVNLTCFVEQPFGDEARFDWDRFREVVRVFTRMLDNVVEINGLPLEQQRQEILGKRRHGMGFLGLGSTLTLLKLRYGSPEACVFTEEVAREMALVGWEVALELAREKGPAPILAQDYEVTAEMLRKRPEMAADGYKAGDRIRGSVLHAKYSRYMQRVAEHAPELIEALAETGARFTHHSSIAPTGTISLSLANNASNGIEPSFAHHYSRNLIREGRKTKEKVEVYSYELLAYRTLVNAQALPDSDDPARRLPDYFITADSVTPAQHMDIQAAAQKWVDSSISKTANVPTDYPFEDFKDIYRYAWHQGLKGCTTFRFNPEAFQGVLVKESDLEKTRYRFELEDGSVVEFKGNEQVEYDGEIHTAANLFDALKEGYYGKY
notes: E. coli BL21(DE3); NrdJa untagged in pET22, 734 residues; NrdJb 229 residues, codon-optimised, 6xHis in pET21 (C-terminal in results, N-terminal in methods); proposed (NrdJa-NrdJb)2; with Class II (cobalamin-dependent) ribonucleotide-diphosphate reductase subunit, NrdJb
Km [1]: 220 ± 60 µM

B2
stoichiometry N [2]: 2

B3: NrdJb subunit of the split class II ribonucleotide reductase from Pseudomonas aeruginosa (enzyme, UniProt Q9HT77 1-229, looked up)
chain: MSAVKITQKIKGFKVVNEAEEQALAAAAEAASVVQMDETLERPDTLIGATYKIKSPLFEHALYVTINDMVLNAGTAHEQRRPFEIFINSKNMDHFQWIVALTRIMSAVFRKGGDCTFLVEELKAVFDPRGGYLKKGGIYMPSIVAEIGGVLERHLTAIGLLRGPELDEEQRLFLAEKRAAYEAAQGTSKVEPGEGFPAGAQLCGKCNSMAVVQMDGCATCLNCGHSKCG
modifications: biotin linker (0.05 biotin linker/NrdJb monomer) where NrdJb was immobilised on the streptavidin chip for SPR
notes: NrdJb, small subunit of the split class II ribonucleotide reductase (NrdJ) of Pseudomonas aeruginosa; 229 residues in PA; the gene encoding NrdJb was custom synthesised with codon optimisation for E. coli and cloned into pET21; No cleavage of the tag is described; Probably the whole 229-residue protein; also called PA NrdJb; His-tagged NrdJb; source: E. coli BL21(DE3), pET21, codon-optimised …
stoichiometry from the enzyme activity titration (activity leveled off at approximately equimolar concentration of NrdJa and NrdJb) [3]: 1
Kd [4]: 360 ± 90 nM
Kd [5]: 91 ± 17 nM
Kd [6]: 680 ± 100 nM
Kd [7]: 690 ± 60 nM
Kd [8]: 300 ± 190 nM
Kd [9]: 54 ± 12 nM
